Molecular target: T1, glycosylated extracellular domain of human CD38 (aa 46-300) (Homo sapiens, UniProt P28907, glycosylation sites intact (glycosylated))
T1 construct: CD38, human, extracellular domain aa 46-300 with intact glycosylation sites; Amine-coupled to AR2G biosensors in the BLI experiments; also called recombinant human CD38; ectodomain of human CD38; source: secretory protein from the pCSE2.5 vector
Experiment: BLI; Octet RED384; recombinant human CD38 amine-coupled to AR2G biosensors; 100 nM and 1 uM nanobody, 5 min association, 10 min dissociation; 25 C; HBS-EP+ pH 7.4; fit 1:1; off-rates only
Conditions: both partners purified

Row | Binder | koff
1 | CD38-specific nanobody MU1053 (family 14), monovalent, from HEK-6E cells (VHH, structure of MU1053 with CD38 is in PDB 5F1O (nanobody chain); also called l-15.3a; source: HEK-6E, transiently transfected (pCSE2.5), purified (Ni-NTA); not shown: His6, C-terminal, kept; Myc, C-terminal, kept) VHH: DVQLQESGGGLVQAGGSLRLSCTGSGRTFRNYPMAWFRQAPGKEREFVAGITWVGASTLYADFAKGRFTISRDNAKNTVYLQMNSLKPEDTAVYSCAAGRGIVAGRIPAEYADWGQGTQVTVSS | 0.0009 s⁻¹
2 | single chain variable fragment (scFv) of daratumumab (scFv, V domains shown, VH domain of daratumumab; 15GS linker; VL domain of daratumumab; Order VH - linker - VL as the methods tell it; also called Dara scFv; Daratumumab scFv; source: HEK-6E, transiently transfected (pCSE2.5)) VH: EVQLLESGGGLVQPGGSLRLSCAVSGFTFNSFAMSWVRQAPGKGLEWVSAISGSGGGTYYADSVKGRFTISRDNSKNTLYLQMNSLRAEDTAVYFCAKDKILWFGEPVFDYWGQGTLVTVSS VL: not shown | 0.0044 s⁻¹

— publication PMC5662768 (Scientific Reports, 2017)
